We go through three molecules from paper PMC2921341, “Interaction of Serum- and Glucocorticoid Regulated Kinase 1 (SGK1) with the WW-Domains of Nedd4-2 Is Required for Epithelial Sodium Channel Regulation” (PLoS ONE, 2010).

Substitutions are numbered along the chain they refer to.

Test [1] deals with Nedd4-2. The following applies: SGK lacking its PY motif; ref [20]; cited from earlier work.
Test [2] concerns Nedd4-2. To be noted: previous work; ref [19]; cited from earlier work. From the text: There has been debate in the literature over detection of an interaction between SGK and Nedd4-2 in vitro, and the interaction is currently not understood at the molecular level. SGK contains a PY motif (PPFY), which might mediate interaction with the WW-domains of Nedd4/Nedd4-2. […] Two previous in vitro binding studies have asked whether the WW-domains of Nedd4-2 interact with an SGK peptide containing the PY motif. […] To test the hypothesis that the interaction of the Nedd4-2 WW-domains with the SGK PY motif is required for SGK to influence Nedd4-2 function, we co-expressed α-, β- and γENaC in FRT epithelia with either wild type SGK or SGKY298A along with increasing amounts of Nedd4-2, and measured the amiloride-sensitive short circuit current. Consistent with our previous work, we fo ...

For test [3], the system named is ENaC. The experiment in a line: Amiloride-sensitive short circuit current in FRT epithelia with ENaC: Nedd4-2 dose response with SGK, SGKY298A or GFP. It counts as cell-based. The following applies: for effect on Nedd4-2 dose-response relationship for ENaC inhibition (in words): FRT epithelia with α-, β-, γENaC, 0.6 µg SGK construct, Nedd4-2 0–0.2 µg, amiloride 10 µM, n = 18. The procedure: To test the hypothesis that the interaction of the Nedd4-2 WW-domains with the SGK PY motif is required for SGK to influence Nedd4-2 function, we co-expressed α-, β- and γENaC in FRT epithelia with either wild type SGK or SGKY298A along with increasing amounts of Nedd4-2, and measured the amiloride-sensitive short circuit current.
Figure 4 The SGK PY motif is necessary for SGK to inhibit Nedd4-2. Amiloride-sensitive short-circuit sodium current (relative to 0 µg of Nedd4-2) in FRT cells 48 hr after transfection with α-, β- and γENaC and SGK (closed circles) or SGKY298A (open circles) or GFP (closed squares), in the presence of increasing amounts of Nedd4-2, n = 18. Nedd4-2 is expressed as a fraction of the amount of ENaC cDNA. Expression of SGK and SGKY298A was reported in Figure 1B of Snyder et al..
Fischer rat thyroid (FRT) cells were grown on permeable filter supports (Snapwell™, Corning USA or Millicell PCF, both with […] pore size, 12 mm diameter) in F-12 Coon's media with 5% fetal calf serum (Sigma), 100 U/ml penicillin, and 100 µg/ml streptomycin at 37°C. One day after seeding, cells were cotransfected with α-, β- and γENaC (0.07 µg each), 0.6 µg wildtype or mutant SGK, and 0–0.2 µg Nedd4-2 (Fig. 4 only). Total DNA was held constant (1 µg/millicell) using cloning vector DNA. The plasmids were mixed with Lipofectamine 2000 (Invitrogen) or TFX 50 (Promega, Madison, WI; 7.9 µg/millicell) in serum free F12 Coon's media for 15 minutes and transferred to the apical surface of the monolayer. One-six hours later, the apical media was replaced with F-12 Coon's media containing 5% fetal calf serum and amiloride (10 µM). Short-circuit current was measured […] after transfection in modified Ussing chambers connected to a voltage clamp (South Campus Electronics, Dunedin, New Zealand or Warner Instruments). The apical and basolateral surfaces were bathed in (in mM) 135 NaCl, 1.2 CaCl2, 1.2 MgCl2, 2.4 K2HPO4, 0.6 KH2PO4, 10 HEPES, pH 7.4, at 37°C and bubbled with O2. Amiloride-sensitive short-circuit current (Isc-amiloride) was determined as the difference in current with and without amiloride (10 µM) in the apical bathing solution. Data are presented as relative Isc-amiloride (Isc-amiloride relative) that was obtained by normalizing the Isc-amiloride to that of control cells transfected with αβγENaC in the same experiment. Transepithelial resistance (Rt) was monitored by applying repetitive voltage potential pulses (5 mV for 1 sec at 120 sec intervals) across the epithelium.

The test system of another test is Nedd4-2 WW-domains. The experiment in a line: GST interaction experiments, wildtype versus activated SGK on Nedd4-2 WW-domains. The test is classed as binding, human. The following applies: GST pulldown with 50 µg WW2, WW3 or WW2–3 fusion, COS7 lysates, densitometry normalized to expression; n = 9 for WW2 and WW3, n = 6 for WW2–3. The procedure:
(§1) SGK is activated by phosphorylation, via a phosphatidylinositide 3-kinase (PI3K)-dependent pathway, and SGK is then able to phosphorylate substrates such as Nedd4-2. Although we were able to detect interaction of Nedd4-2 WW-domains with wildtype SGK (Fig. 1B, C), we hypothesized that an activated form of SGK might have a higher affinity for Nedd4-2. Therefore GST interaction experiments were performed comparing the binding of wildtype SGK and activated SGK (SGKS422D) to isolated Nedd4-2 WW-domains. SGKS422D appeared to run more slowly compared to SGK, consistent with it representing a phosphorylated form of SGK [8]. […] To ask if SGKS422D has an altered effect on Na^+ transport, we measured the amiloride-sensitive short circuit current in Fischer rat thyroid (FRT) epithelia transfected with α-, β-, and γENaC and either wildtype or activated SGK (Fig. 3C). […] Instead, increased binding of SGKS422D to Nedd4-2 may be a factor in the improved ability of SGKS422D to increase amiloride-sensitive current.
(§2) Figure 3 SGKS422D binding to Nedd4-2 and stimulation of ENaC is enhanced compared to wildtype SGK. (A) SGK-FLAG or SGKS422D-FLAG were expressed in COS7 cells. […] After washing the beads, the bound proteins were eluted and analyzed by SDS-PAGE and western blotting with anti-FLAG. […] (B) The resulting bands were quantified by densitometry and normalized to total expression of either SGK or SGKS422D. […]

A further test has as its system GST. Description: GST interaction experiments, GST alone (control). It counts as binding. The following applies: GST pulldown control, COS7 lysates, Fig. 3A. The procedure:
as §1, §2

Test [4] concerns ENaC. The experiment in a line: Amiloride-sensitive short circuit current in FRT epithelia transfected with α-, β- and γENaC. The following applies: serum-containing and serum-free media gave similar results, amiloride 10 µM, n = 4. The test is classed as cell-based. The procedure: as §1, §2
In another test the test system is Nedd4. The following applies: in vitro studies; ref [19]; cited from earlier work. An excerpt:
There has been debate in the literature over detection of an interaction between SGK and Nedd4-2 in vitro, and the interaction is currently not understood at the molecular level. SGK contains a PY motif (PPFY), which might mediate interaction with the WW-domains of Nedd4/Nedd4-2. […] Two previous in vitro binding studies have asked whether the WW-domains of Nedd4-2 interact with an SGK peptide containing the PY motif. One study used surface plasmon resonance and ...

B1: SGKY298A: SGK that contains a mutated PY motif (protein)
chain: MTVKTEAAKGTLTYSRMRGMVAILIAFMKQRRMGLNDFIQKIANNSYACKHPEVQSILKISQPQEPELMNANPSPPPSPSQQINLGPSSNPHAKPSDFHFLKVIGKGSFGKVLLARHKAEEVFYAVKVLQKKAILKKKEEKHIMSERNVLLKNVKHPFLVGLHFSFQTADKLYFVLDYINGGELFYHLQRERCFLEPRARFYAAEIASALGYLHSLNIVYRDLKPENILLDSQGHIVLTDFGLCKENIEHNSTTSTFCGTPEYLAPEVLHKQPYDRTVDWWCLGAVLYEMLYGLPPFASRNTAEMYDNILNKPLQLKPNITNSARHLLEGLLQKDRTKRLGAKDDFMEIKSHVFFSLINWDDLINKKITPPFNPNVSGPNDLRHFDPEFTEEPVPNSIGKSPDSVLVTASVKEAAEAFLGFSYAPPTDSFL
modifications: left off: FLAG, end not stated, state not stated
notes: SGK that contains a mutated PY motif
Turning to B1, the “phosphorylation of Nedd4-2 (in words)” value in the test on Nedd4-2 [1] is on record as “less able to phosphorylate Nedd4-2”. In the test on Nedd4-2 [2], the “binding to full length Nedd4-2 (in words)” value is reported as “not able to bind full length Nedd4-2”. Moreover, the “stimulation of ENaC in the presence of Nedd4-2 (in words)” value in the test on ENaC [3] (FRT epithelia with ENaC and Nedd4-2) is listed as “failed to stimulate ENaC activity in the presence of Nedd4-2”. Further, in the test on ENaC [3], the “effect on Nedd4-2 dose-response relationship for ENaC inhibition (in words)” value was “had no effect on the Nedd4-2 dose-response relationship”.

B2: SGKS422D: activated SGK; mutation of one of two phosphorylation sites (protein)
chain: B1 chain with A298Y, S422D
modifications: left off: FLAG, C-terminal, kept
notes: mutation of one of two phosphorylation sites
In the case of B2, the “binding to Nedd4-2 WW-domains compared with wildtype SGK (in words)” value in the test with Nedd4-2 WW-domains is listed as “binds Nedd4-2 WW-domains more strongly than SGK”. In addition, in the test on GST, the “binding to GST alone (in words)” value is “did not bind to GST alone”. In addition, the “effect on amiloride-sensitive short circuit current, Isc-amiloride (in words)” value with ENaC [4] is “greater stimulatory effect on Isc-amiloride compared to SGK”.

B3: SGK: Serum- and Glucocorticoid regulated Kinase isoform 1 (protein, UniProt O00141 1-431, looked up)
Serine/threonine-protein …: B1 chain with A298Y
As to B3, in the test on Nedd4, the “interaction with Nedd4 (in words)” value is “Nedd4 and Nedd4-2 interact with wildtype SGK”. Also, the “binding to full length Nedd4-2 (in words)” value in the test with Nedd4-2 [2] is “Nedd4 and Nedd4-2 interact with wildtype SGK”. Besides, the “effect on Nedd4-2 dose-response relationship for ENaC inhibition (in words)” value in the test with ENaC [3] is reported as “reduced inhibition, shifting the dose-response relationship to the right”. For the same molecule, the “effect on amiloride-sensitive short circuit current, Isc-amiloride (in words)” value in the test with ENaC [4] is listed as “stimulated Isc-amiloride significantly”.
